Data set [1] addresses DnaT N-terminal core domain (E. coli). Briefly: fluorescence polarisation. (In general: Polarisation of emitted light reports the rotation of a fluorescent probe.)
The target is the same in data set [2]. Briefly: fluorescence polarisation. This is another data set of the same source.
Data set [3] deals with the molecule itself. Briefly: fluorescence polarisation.
Data set [4] concerns the molecule itself. Briefly: AUC.

These results are taken from article PMC3665079 (Biochemistry, 2013).

Like-named read-outs stand apart in the source and are kept apart here.

As a reminder, the stoichiometry N is the number of molecules, sites or subunits per partner or assembly.

For the molecule “DnaT N-terminal core domain (domain or fragment)”, the dH in data set [1] is -4.6 kcal/mol; in data set [2] it was 2.2 kcal/mol.

B1: Escherichia coli DnaT protein (natural protein, E. coli, UniProt P0A8J2 1-179, looked up)
chain: MSSRVLTPDVVGIDALVHDHQTVLAKAEGGVVAVFANNAPAFYAVTPARLAELLALEEKLARPGSDVALDDQLYQEPQAAPVAVPMGKFAMYPDWQPDADFIRLAALWGVALREPVTTEELASFIAYWQAEGKVFHHVQWQQKLARSLQIGRASNGGLPKRDVNTVSEPDSQIPPGFRG
For B1, in data set [3], the dH was -15 ± 2 kcal/mol. In data set [4], the “stoichiometry N” value turned out to be 3.
